Results as given in patent US20210054062A1 (NEURACLE SCIENCE, published 2021).

Key:
FAM19A5-rabbit Fc [1] = biological target: T1, FAM19A5-rabbit Fc; assay: ELISA: FAM19A5-rFc captured on coated anti-rabbit Fc antibody, antibody at 2.8 to 2055 pM, anti-human kappa light chain-HRP, OD450. The table prints R2 of the fit as 1.000.
T1 construct: also called FAM19A5-rFc
Procedure: (§1) For the ELISA assay, the following protocol was used. Anti-rabbit Fc antibody (diluted to a concentration of 1 μg/mL in 50 mM carbonate buffer, pH 9.6) was used to coat the 96-well plates (100 μL/well) overnight at 4° C. Next, the plates were washed with the washing buffer (PBST: 0.05% Tween-20/PBS) for a total of five washes. The plates were then blocked for 1 hour at 37° C. with the blocking buffer (1% BSA/PBST) (150 μL/well) and washed again with the washing buffer. Then, 50 ng/mL of FAM19A5-rabbit Fc (also called FAM19A5-rFc) antigen diluted in blocking buffer was added to each of the wells. The plates were incubated for an additional hour at 37° C. After the incubation, the plates were washed again for a total of five washes with the washing buffer. The diluted anti-FAM19A5 antibodies in blocking buffer to different concentrations (2055 pM, 685 pM, 228.3 pM, 76.1 pM, 25.4 pM, 8.5 pM, 2.8 pM, 0 pM) were added to each of the wells, and the plates were incubated for 2 hours at 37° C. After the incubation, the plates were washed (total of five washes in the wash buffer) and then, diluted anti-human kappa light chain-HRP (1:10000 in blocking buffer) was added to the well (100 μL/well). […] This reaction was stopped using 100 μL of sulfuric acid (2N H₂SO₄), and the extent of color change was detected via absorption at 450 nm using a 96 well microplate reader (Molecular Device).

FAM19A5-rabbit Fc [2] = biological target: T1, FAM19A5-rabbit Fc; assay: ELISA: FAM19A5-rFc captured on coated anti-rabbit Fc antibody, antibody at 2.8 to 2055 pM, anti-human kappa light chain-HRP, OD450. The table prints R2 of the fit as 0.999.
Procedure: as §1

T1 sequence (Q7Z5A7 44-132): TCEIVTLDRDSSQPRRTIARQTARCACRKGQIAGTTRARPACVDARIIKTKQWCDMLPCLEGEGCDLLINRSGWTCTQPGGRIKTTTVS

Binder	EC50 (FAM19A5-rabbit Fc [1])	EC50 (FAM19A5-rabbit Fc [2])
Reference anti-FAM19A5 antibody ("1-65") (antibody, V domains shown, The ELISA detected it with anti-human kappa light chain-HRP; also called 1-65 antibody; clone 1-65) VH: AVTLDESGGGLQTPGGALSLVCKASGFTFSSYQMGWVRQAPGKGLEWVGVINKSGSDTSYGSAVKGRATISRDNGQSTVRLQLNNLRAEDTGTYFCAKGSASYITAATIDAWGHGTEVIVSS VL: ALTQPSSVSANPGETVKITCSGGGSSGYGYGWYQQKSPSSAPLTVIYWNDKRPSDIPSRFSGSKSGSTHTLTITGVQAEDEAVYFCGNDDYSSDSGYVGVFGAGTTLTVL	0.13 nM	
Anti-FAM19A5 antibody ("SS01-13-s5") (antibody, V domains shown, The ELISA detected it with anti-human kappa light chain-HRP; also called deimmunized clone 1-65; deimmunized 1-65 antibody) VH: AVTLDESGGGLQTPGGALRLSCKASGFTFSSYQMGWVRQAPGKGLEWVSAINKSGSDTSYGSAVKGRATISRDNGQSTLYLQMNSLRAEDTAVYFCAKGSASYITAATIDAWGHGTEVIVSS VL: ALTQPSSVSANPGETARITCSGGASSGYGYGWYQQKPSSAPLTVIYKDSERPSDIPSRFSGSSSGSTHTLTISGVQAEDEAVYFCGNDDYSSDSGYVGVFGAGTTLTVL	0.38 nM	
Anti-FAM19A5 antibody ("S5-SG") (antibody, V domains shown, The ELISA detected it with anti-human kappa light chain-HRP; also called deimmunized clone S5-SG; S5-2.GKNG antibody) VH: AVTLDESGGGLQTPGGALRLSCKASGFTFSSYQMGWVRQAPGKGLEWVSAINKGGSDTSYGSAVKGRATISRDNGQSTLYLQMNSLRAEDTAVYFCAKGSASYITAATIDAWGHGTEVIVSS VL: ALTQPSSVSANPGETARITCSGGASSGYGYGWYQQKPSSAPLTVIYKDSERPSDIPSRFSGSSSGSTHTLTISGVQAEDEAVYFCGNDDYSSDSGYVGVFGAGTTLTVL		0.21 nM
